Results taken from article PMC11035769.

Target: CD16a-His (human) (UniProt P08637)
Assay: BLI; CD16a-His (250 ng/mL) immobilised on HIS1K biosensors; analytes at 3200 - 50 nM or 400 - 6.25 nM; 1X kinetics buffer (PBS pH 7.4, 0.02% Tween-20, 0.1% bovine serum albumin); 300 s association, 600 s dissociation; 1:1 fitting model; geometric means

Chain of UniProt P08637 (P08637 17-208): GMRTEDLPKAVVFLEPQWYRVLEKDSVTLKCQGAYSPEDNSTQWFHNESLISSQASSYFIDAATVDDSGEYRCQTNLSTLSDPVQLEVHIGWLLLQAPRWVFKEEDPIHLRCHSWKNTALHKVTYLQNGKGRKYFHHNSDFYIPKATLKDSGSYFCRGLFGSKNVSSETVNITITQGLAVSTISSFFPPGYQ

Kd: 244 nM
koff: 0.0402 s⁻¹
kon: 165000 M⁻¹ s⁻¹
Substance: Immune Globulin Intravenous (Human) (antibody)
